Article PMC12775124, “CUL4A-DDB1-DCAF10 is an N-recognin for N-terminally acetylated Src kinases” (Nature Communications, 2026)
Changes are numbered by the printed parent chain. Names may count otherwise.

B1: FLAG-DCAF10: FLAG-DCAF10 overexpression in HeLa cells (protein, UniProt Q5QP82 1-559, looked up)
DDB1- and CUL4-associated …: MFPFGPHSPGGDGSAGAGAEEPTPHEGQAAATGPPSPLHPGADATHPPPPARSPRRPGAPSLSPAPRSGELGLPGAPESSTASAPGEPSPPSPPCRRPGPDCRAKSRGRHGLGAGLGGPGARLFGWLKERSLGRGLFVDPARDNFRTMTSLYGSIHPADSVYLSTRTHGAVFNLEYSPDGSVLTVACEQTEVLLFDPISSKHIKTLSEAHEDCVNNIRFLDNRLFATCSDDTTIALWDLRKLNTKVCTLHGHTSWVKNIEYDTNTRLLVTSGFDGNVIIWDTNRYTEDGCPHKKFFHTRFLMRMRLTPDCSKMLISTSSGYLLILHDLDLTKSLEVGSYPILRARRTTSSSDLTTSSSSSGPRVSGSPCHHSDSNSSEKHMSRASQREGVSPRNSLEVVTPEVLGESDHGNCITSLQLHPKGWATLLRCSSNSDDEECTCVYEFQEGAPVRPVSPRCSLRLTHYIEEANVGRGYIKELCFSPDGRMISSPHGYGIRLLGFDKQCSELVDCLPKEASPLRVIRSLYSHNDVVLTTKFSPTHCQIASGCLSGRVSLYQPKF
modifications: FLAG tag
notes: FLAG-DCAF10 overexpression in HeLa cells
B2: DCAF10 triple mutant: DCAF10 triple mutant (F172G, K257A, and I475G) in E3 complex (protein)
chain: B1 DDB1- and CUL4-associated … with F172G, K257A, I475G
modifications: left off: MBP (as in the WT complex; not said for the mutant), end not stated, state not stated

What was measured:
[1] = test system: Lyn; experiment: Lyn level after FLAG-DCAF10 overexpression; format: cell-based, human; conditions: HeLa, NMT1/2 KD 72 h, FLAG-DCAF10 overexpression 24 h
Procedure: (§1) 124 Supplementary Fig. 5. NMT1/2 knockdown leads to an increased turnover of SFKs
(§2) 125 and overexpression of DCAF10 reduces SFK levels after NMT1/2 knockdown.
(§3) 126 a) HeLa cells were treated with NMT1/2 siRNA for 72 h or left untreated in combination
(§4) 127 with FLAG-DCAF10 overexpression for 24 h. Representative WBs are shown. b-c) Left:
(§5) 128 WB quantifications with and without NMT1/2 siRNA of Lyn (b) and THOC7 (c)
(§6) Right: Fold change of Lyn (b) and THOC7 (c) after DCAF10
(§7) 130 overexpression. Untreated: purple; with NMT1/2 RNAi: blue. Individual data points are
(§8) 131 indicated (n = 2 or 3 independent biological replicates). MG132 = proteasome inhibitor;
(§9) 132 CHX = cycloheximide translational inhibitor. d) HeLa cells were treated for 72 h with and
(§10) 133 without NMT1/2 siRNA and treated with cycloheximide or MG132 for the indicated
(§11) 134 periods of time. Representative WBs are shown. Filled circles indicate treatment; empty
(§12) 135 circles indicate no treatment. e-h) Fold-change analysis of protein expression levels under
(§13) 136 the indicated conditions. Left: fold change after 8 h cycloheximide treatment of (e) Lyn,
(§14) 137 (f) Fyn, (g) Src and (h) THOC7. Right: fold change after 4 h MG132 treatment of (e) Lyn,
(§15) Untreated: purple; with NMT1/2 siRNA: blue (n = 3 […]
(§16) 412 serum (FBS). Cells were counted and diluted to 100,000 cells/mL. […]
(§17) 433 fraction was measured by MS (see Mass spectrometry measurements and raw file […]

[2] = test system: THOC7; experiment: THOC7 level after FLAG-DCAF10 overexpression; format: cell-based, human; conditions: HeLa, NMT1/2 KD 72 h, FLAG-DCAF10 overexpression 24 h
Procedure: as §1, §2, §3, §4, §5, §6, §7, §8, §9, §10, §11, §12, §13, §14, §15, §16, §17

[3] = test system: Src; experiment: In vitro ubiquitination of immunoprecipitated Src; format: biochemical, human; conditions: DCAF10 pocket mutant complex
Source text: (§18) Having established cellular regulation by DCAF10 under reduced N-myristoylation, we aimed to test whether CUL4A-DDB1-DCAF10 directly ubiquitinates SFKs. […] As we expect NMT1/2 depletion to cause a destabilization of SFKs, their equal or even greater ubiquitination in IPs from untreated cells relative to NMT1/2-depleted cells was unanticipated. We speculate that (i) Nt-acetylated SFKs may degrade rapidly, preventing their accumulation upon NMT1/2 depletion; (ii) an acetylated fraction of SFKs may exist under physiological conditions; (iii) DCAF10 might recognize additional surfaces.
(§19) Reactions contained E1, UBCH5B (E2), ubiquitin, Mg-ATP in ligation buffer and were incubated with bead-bound substrates, followed by washing and immunoblot detection of ubiquitinated species (anti-ubiquitin), with loading controls (anti-Lyn, -Fyn, -Src or -GFP) (n = 3 independent enzymatic assays). Complete reagent lists, complex preparation, substrate IP conditions, wash buffers, and gel/blot parameters are provided in the Supplementary Methods and Tables.
(§20) 357 (v/v) glycerol, 2 mM TCEP, supplemented with Protease Inhibitor Cocktail), and lysed
(§21) 358 by sonication. Lysates were cleared by centrifugation at 28,000 rpm for 45 min at 4 °C […]
(§22) 382 EDTA, and loaded on a gradient gel (4–15%). Ubiquitination of substrates was assessed
(§23) 383 by WB using an anti-ubiquitin antibody. Equal substrate loading was evaluated by anti- […]

[4] = test system: Lyn; experiment: In vitro ubiquitination of immunoprecipitated Lyn; format: biochemical, human; conditions: DCAF10 pocket mutant complex
Source text: as §18, §19, §20, §21, §22, §23

[5] = test system: Fyn; experiment: In vitro ubiquitination of immunoprecipitated Fyn; format: biochemical, human; conditions: DCAF10 pocket mutant complex
Source text: as §18, §19, §20, §21, §22, §23

Molecule	Lyn level, fold decrease compared to control cells [1]	THOC7 level (in words) [2]	Src ubiquitination (in words) [3]	Lyn ubiquitination (in words) [4]	Fyn ubiquitination (in words) [5]
B1	~ 2.1 fold	remained unchanged	–	–	–
B2	–	–	Src ubiquitination was unaffected by the mutations	abolished ubiquitination of Lyn and Fyn	abolished ubiquitination of Lyn and Fyn
